The text below walks through data of patent US20190360025A1.

The target of assay [1] is tumor necrosis factor alpha (TNF-α), R&D Systems 210-TA-005 (UniProt P01375). Description: c-PLA 10X probes, buffer; TNF-α 5.00E-07 M.
Assay [2] shares this target. In words: t-PLA 10X probes, human plasma; TNF-α 1.00E-09 M.
The target is the same in assay [3]. Description: c-PLA 10X probes, human plasma; TNF-α 1.00E-10 M.
Assay [4] shares this target. In words: c-PLA 1X probes, human plasma; TNF-α 1.00E-09 M.
Assay [5] has the same target. In words: c-PLA 1X probes, human plasma; TNF-α 5.00E-07 M.
For assay [6] the target is unchanged. In words: t-PLA, buffer; TNF-α 1.00E-10 M.
For assay [7] the target is unchanged. In words: BLI (Octet RED), antibody on protein G sensors, 1:1 global fit. A general note: BLI is a label-free optical method that tracks binding on a fibre tip over time.
The target is the same in assay [8]. Description: c-PLA 1X probes, human plasma; TNF-α 1.00E-12 M.
For assay [9] the target is unchanged. Description: t-PLA 1X probes, buffer; TNF-α 1.00E-11 M.
For assay [10] the target is unchanged. Description: c-PLA 10X probes, human plasma; TNF-α 1.00E-09 M.
Assay [11] has the same target. Description: t-PLA 1X probes, human plasma; TNF-α 1.00E-13 M.
Assay [12] has the same target. Description: c-PLA 10X probes, buffer; TNF-α 1.00E-08 M.
Assay [13] shares this target. In words: t-PLA 10X probes, human plasma; TNF-α 1.00E-13 M.
The target is the same in assay [14]. In words: c-PLA 1X probes, human plasma; TNF-α 1.00E-13 M.
The target is the same in assay [15]. In words: c-PLA 10X probes, buffer; TNF-α 1.00E-11 M.
For assay [16] the target is unchanged. In words: c-PLA, buffer; TNF-α 1.00E-08 M.
For assay [17] the target is unchanged. In words: t-PLA 10X probes, buffer; TNF-α 1.00E-08 M.
The target is the same in assay [18]. In words: t-PLA 10X probes, buffer; TNF-α 1.00E-10 M.
Assay [19] concerns the target vascular endothelial growth factor (VEGF), R&D Systems 293-VE-010 (human) (UniProt P15692). Description: c-PLA, buffer; VEGF 1.00E-08 M.
Sequence of UniProt P15692 (P15692 other isoform, or with tags, fused parts or gaps limits assumed): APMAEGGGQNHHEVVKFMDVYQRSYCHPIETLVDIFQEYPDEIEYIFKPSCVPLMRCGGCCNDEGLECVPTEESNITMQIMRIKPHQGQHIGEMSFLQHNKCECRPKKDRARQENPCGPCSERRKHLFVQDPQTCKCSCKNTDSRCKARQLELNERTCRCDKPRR
For assay [20] the target is unchanged. Description: BLI (Octet RED), antibody on protein G sensors, 1:1 global fit.
Assay [21] has the same target. In words: c-PLA, human plasma; VEGF 1.00E-12 M.
Assay [22] shares this target. In words: t-PLA, buffer; VEGF 1.00E-09 M.
Assay [23] has the same target. Description: c-PLA, human plasma; VEGF 1.00E-08 M.
Assay [24] shares this target. In words: t-PLA with preamplification; VEGF 1.00E-08 M.
Assay [25] has the same target. In words: c-PLA with preamplification; VEGF 1.00E-13 M.
For assay [26] the target is unchanged. Description: t-PLA with preamplification; VEGF 1.00E-09 M.
The target is the same in assay [27]. Description: t-PLA with preamplification; VEGF 1.00E-14 M.
Assay [28] shares this target. Description: t-PLA, human plasma; VEGF 1.00E-13 M.

Sequence of UniProt P01375 (P01375 77-233 limits assumed): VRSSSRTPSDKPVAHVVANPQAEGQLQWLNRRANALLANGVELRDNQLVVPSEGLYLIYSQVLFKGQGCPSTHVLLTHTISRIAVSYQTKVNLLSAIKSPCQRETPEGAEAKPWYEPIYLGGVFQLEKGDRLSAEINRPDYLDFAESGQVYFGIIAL

For the substance “affinity-purified polyclonal anti-TNF-α antibody (R&D Systems AF-210-NA)”, the Counts in [1] is 650000; in [2] it was 8.87e+07; in [3], 7420; in assay [4], 1310; in assay [5] it was 28800; in assay [8], 75.9. The Counts is 443000 in [9]; 45400 in assay [10]; 203000 in [11]; 359000 in assay [12]; 1.36e+07 in assay [13]; 83.7 in [14]. The Counts worked out at 590 in [15], 11600 in assay [16], 1.33e+09 in assay [17] and 2.75e+07 in assay [18]. Also, the SBR in [1] worked out at 3550; in assay [2] it was 7.8; in assay [4], 17; in [5], 383; in [6] it was 15.9; in assay [10] it was 21. The SBR in assay [12] was 1960; in assay [13], 1.2; in assay [14], 1.1; in assay [16], 1030; in assay [17], 233; in assay [18], 4.8. In addition, in [7], the Kd came to 6.43 nM.

Consider “affinity-purified polyclonal anti-VEGF antibody (R&D Systems AF-293-NA)”, for which the Counts in assay [19] came out at 483000; in assay [21] it was 408; in assay [22] it was 3.98e+09; in assay [23], 24800; in [24], 1e+09; in assay [25], 95500. Also, the Counts in assay [26] is 1.19e+09; in assay [27], 363000; in [28] it was 1.79e+06. Also, the SBR in [19] was found to be 16300; in assay [21] it was 1.6; in [22], 11500; in [23] it was 96; in assay [24] it was 5680; in assay [25] it was 1.6. Moreover, the figures for the SBR in assay [26] and in assay [28] were 6740 and 1.1, respectively. Besides, in assay [20], the Kd came to 0.057 nM.

In general, Kd refers to the free concentration of one partner at which half of the binding sites on the other are occupied at equilibrium, for simple one-to-one binding. High values mean a looser complex, low ones a tighter complex.
